Measured values: PMC5720862 (Developmental cell, 2017)
Read-outs that look alike come from different tables or passages of the source.

T1: DSK2A-MBP (Arabidopsis thaliana, UniProt Q9SII9 1-538)
T1 sequence (looked up): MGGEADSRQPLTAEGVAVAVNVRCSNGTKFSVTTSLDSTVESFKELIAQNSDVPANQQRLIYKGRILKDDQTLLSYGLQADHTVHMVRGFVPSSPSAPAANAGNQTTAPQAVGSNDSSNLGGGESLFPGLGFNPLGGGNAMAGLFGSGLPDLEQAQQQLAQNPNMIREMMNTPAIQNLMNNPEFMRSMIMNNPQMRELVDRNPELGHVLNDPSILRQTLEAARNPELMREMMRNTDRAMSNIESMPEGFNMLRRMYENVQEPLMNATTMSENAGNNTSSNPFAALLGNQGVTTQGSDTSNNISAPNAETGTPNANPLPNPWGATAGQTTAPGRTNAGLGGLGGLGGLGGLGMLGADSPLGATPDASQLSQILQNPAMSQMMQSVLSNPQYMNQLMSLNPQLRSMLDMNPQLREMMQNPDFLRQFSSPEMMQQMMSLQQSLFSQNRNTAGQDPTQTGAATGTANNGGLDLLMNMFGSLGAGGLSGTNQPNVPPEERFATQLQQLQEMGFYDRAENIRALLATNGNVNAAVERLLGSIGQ

T2: DSK2A-HIS (Arabidopsis thaliana, UniProt Q9SII9 1-538)
T2 sequence (looked up): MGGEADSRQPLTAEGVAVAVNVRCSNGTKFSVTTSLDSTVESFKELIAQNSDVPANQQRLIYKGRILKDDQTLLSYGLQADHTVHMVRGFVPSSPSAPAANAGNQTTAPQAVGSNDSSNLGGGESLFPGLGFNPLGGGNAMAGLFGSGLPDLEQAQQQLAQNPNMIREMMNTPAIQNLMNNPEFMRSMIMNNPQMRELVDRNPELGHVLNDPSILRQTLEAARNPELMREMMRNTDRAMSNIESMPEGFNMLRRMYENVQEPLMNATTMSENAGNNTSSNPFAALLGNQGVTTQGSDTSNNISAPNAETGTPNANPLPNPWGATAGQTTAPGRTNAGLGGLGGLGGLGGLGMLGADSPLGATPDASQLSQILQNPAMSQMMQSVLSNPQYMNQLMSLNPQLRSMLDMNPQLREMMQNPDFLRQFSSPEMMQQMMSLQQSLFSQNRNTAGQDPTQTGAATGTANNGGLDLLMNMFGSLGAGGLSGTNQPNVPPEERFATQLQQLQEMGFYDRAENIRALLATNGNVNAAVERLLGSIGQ

T3: GST-DSK2A (Arabidopsis thaliana, UniProt Q9SII9 1-538)
T3 sequence (looked up): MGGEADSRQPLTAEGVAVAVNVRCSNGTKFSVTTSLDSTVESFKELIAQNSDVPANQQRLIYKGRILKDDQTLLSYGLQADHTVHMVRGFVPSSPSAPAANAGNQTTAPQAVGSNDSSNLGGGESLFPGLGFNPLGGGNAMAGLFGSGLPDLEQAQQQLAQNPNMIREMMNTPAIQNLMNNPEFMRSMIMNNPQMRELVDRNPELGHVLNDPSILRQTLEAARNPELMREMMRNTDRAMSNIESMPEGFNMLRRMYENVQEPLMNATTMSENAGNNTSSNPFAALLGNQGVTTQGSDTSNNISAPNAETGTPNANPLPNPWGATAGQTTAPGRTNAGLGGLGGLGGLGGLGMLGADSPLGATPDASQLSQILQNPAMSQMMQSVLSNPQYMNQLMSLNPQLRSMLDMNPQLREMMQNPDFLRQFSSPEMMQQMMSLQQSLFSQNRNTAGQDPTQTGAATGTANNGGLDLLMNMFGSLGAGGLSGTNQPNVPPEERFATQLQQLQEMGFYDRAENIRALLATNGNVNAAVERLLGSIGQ


Tests used:
Experiment in all cases: pull-down
DSK2A-MBP [1] = molecular target: T1, DSK2A-MBP
DSK2A-HIS = molecular target: T2, DSK2A-HIS
DSK2A-MBP [2] = molecular target: T1, DSK2A-MBP; remark: listed apart in the source
GST-DSK2A = molecular target: T3, GST-DSK2A

Binder | binding result (DSK2A-MBP [2]) | further results
BIN2, recombinant, of the in vitro pull-down with DSK2 (enzyme, Arabidopsis thaliana, UniProt Q39011 1-380, looked up) MADDKEMPAAVVDGHDQVTGHIISTTIGGKNGEPKQTISYMAERVVGTGSFGIVFQAKCLETGETVAIKKVLQDRRYKNRELQLMRVMDHPNVVCLKHCFFSTTSKDELFLNLVMEYVPESLYRVLKHYSSANQRMPLVYVKLYMYQIFRGLAYIHNVAGVCHRDLKPQNLLVDPLTHQVKICDFGSAKQLVKGEANISYICSRFYRAPELIFGATEYTTSIDIWSAGCVLAELLLGQPLFPGENAVDQLVEIIKVLGTPTREEIRCMNPHYTDFRFPQIKAHPWHKIFHKRMPPEAIDFASRLLQYSPSLRCTALEACAHPFFDELREPNARLPNGRPFPPLFNFKQEVAGSSPELVNKLIPDHIKRQLGLSFLNQSGT |  | binding result (DSK2A-MBP [1]): binds
phosphorylated BES1-MBP (natural protein, Arabidopsis thaliana, UniProt Q9LN63 1-335, looked up, phosphorylated in vitro by BIN2-GST (sites not given)) MTSDGATSTSAAAAAAAMATRRKPSWRERENNRRRERRRRAVAAKIYTGLRAQGNYNLPKHCDNNEVLKALCSEAGWVVEEDGTTYRKGHKPLPGDMAGSSSRATPYSSHNQSPLSSTFDSPILSYQVSPSSSSFPSPSRVGDPHNISTIFPFLRNGGIPSSLPPLRISNSAPVTPPVSSPTSRNPKPLPTWESFTKQSMSMAAKQSMTSLNYPFYAVSAPASPTHHRQFHAPATIPECDESDSSTVDSGHWISFQKFAQQQPFSASMVPTSPTFNLVKPAPQQLSPNTAAIQEIGQSSEFKFENSQVKPWEGERIHDVAMEDLELTLGNGKAHS |  | binding result (DSK2A-HIS): binds
GST-ATG8i (natural protein, Arabidopsis thaliana, UniProt Q9LRP7 1-115, looked up) MKSFKEQYTLDERLAESREIIAKYPTRIPVIAEKYCKTDLPAIEKKKFLVPRDMSVGQFIYILSARLHLSPGKALFVFVNNTLPQTAALMDSVYESYKDDDGFVYMCYSSEKTFG | binds | 
SINAT2-MBP (enzyme, Arabidopsis thaliana, UniProt Q9M2P4 1-308, looked up) MAPGGSALKEVMESNSTGMDYEVKTAKVEVNNNKPTKPGSAGIGKYGIHSNNGVYELLECPVCTNLMYPPIHQCPNGHTLCSNCKLRVQNTCPTCRYELGNIRCLALEKVAESLEVPCRYQNLGCHDIFPYYSKLKHEQHCRFRPYTCPYAGSECSVTGDIPTLVVHLKDDHKVDMHDGCTFNHRYVKSNPHEVENATWMLTVFNCFGRQFCLHFEAFQLGMAPVYMAFLRFMGDENEAKKFSYSLEVGAHGRKLTWQGIPRSIRDSHRKVRDSQDGLIIPRNLALYFSGGDRQELKLRVTGRIWKEE |  | binding result (GST-DSK2A): binds

Now from value to binder, other results behind:

binding result (DSK2A-MBP [2]) | Binder | further results
binds | GST-ATG8e (natural protein, Arabidopsis thaliana, UniProt Q8S926 1-118, looked up) MNKGSIFKMDNDFEKRKAEAGRIREKYPDRIPVIVEKAEKSEVPNIDKKKYLVPSDLTVGQFVYVIRKRIKLSAEKAIFIFVDNVLPPTGELMSSVYEDKKDEDGFLYITYSGENTFG | 
binds | GST-ATG8a (natural protein, Arabidopsis thaliana, UniProt Q8LEM4 1-117, looked up) MAKSSFKISNPLEARMSESSRIREKYPDRIPVIVEKAGQSDVPDIDKKKYLVPADLTVGQFVYVVRKRIKLGAEKAIFVFVKNTLPPTAALMSAIYEEHKDEDGFLYMTYSGENTFG | 
binds | GST-ATG8f (natural protein, Arabidopsis thaliana, UniProt Q8VYK7 1-117, looked up) MAKSSFKQEHDLEKRRAEAARIREKYPDRIPVIVEKAEKSDIPTIDKKKYLVPADLTVGQFVYVIRKRIKLSAEKAIFIFVDNVLPPAGALMSSVYEEKKDDDGFLYVTYSGENTFG | 
